The source of these data is patent US20180273941A1 (UNIVERSITY OF MARYLAND BALTIMORE, published 2018).

In the assay the target is T1, wild-type human moesin (Moesin-WT) (human, UniProt P26038 2-577, pulled down with the anti-p-ERM antibody, i.e. the form with phosphorylated C-terminal threonine (Thr558 for moesin, as the filing names the site in paragraph 193)).
T1 construct: also called pCDNA3-Moesin WT; wild type moesin
Nature of the assay: anti-p-ERM IP and Western blot, transfected H522 cells. The text has this:
Both plasmids produce high levels of moesin proteins in the transfected cells (FIG. 5d).
Because p-ERM functions primarily through binding to F-actin and EBP50 (ERM-binding phosphoprotein 50) through their C-ERMAD and TERM domain (Fouassier, L., Yun, C. C., Fitz, J. G.& Doctor, R. B. Evidence for ezrin-radixin-moesin-binding phosphoprotein 50 (EBP50) self-association through PDZ-PDZ interactions. J Biol Chem. 275, 25039-25045 (2000); Turunen, O., Wahlström, T. & Vaheri, A. Ezrin has a COOH-terminal actin-binding site that is conserved in the ezrin protein family. J Cell Biol. 126, 1445-1453 (1994); Bretscher, A. et al. ERM-Merlin and EBP50 protein families in plasma membrane organization and function.

T1 sequence (P26038 2-577 limits assumed): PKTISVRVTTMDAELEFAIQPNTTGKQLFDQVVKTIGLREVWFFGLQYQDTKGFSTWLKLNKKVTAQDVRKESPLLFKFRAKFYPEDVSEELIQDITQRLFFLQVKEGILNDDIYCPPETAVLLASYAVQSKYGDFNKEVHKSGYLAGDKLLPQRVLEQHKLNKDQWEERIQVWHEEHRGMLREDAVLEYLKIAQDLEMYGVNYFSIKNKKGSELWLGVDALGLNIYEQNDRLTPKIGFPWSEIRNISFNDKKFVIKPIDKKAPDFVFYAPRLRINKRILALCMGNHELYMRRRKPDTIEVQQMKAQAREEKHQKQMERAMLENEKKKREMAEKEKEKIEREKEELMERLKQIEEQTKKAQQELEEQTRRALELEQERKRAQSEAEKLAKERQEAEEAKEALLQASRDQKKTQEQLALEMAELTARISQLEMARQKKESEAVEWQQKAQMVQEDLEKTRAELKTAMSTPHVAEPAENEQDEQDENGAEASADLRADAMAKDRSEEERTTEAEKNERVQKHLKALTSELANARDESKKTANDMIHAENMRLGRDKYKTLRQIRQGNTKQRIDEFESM

B1: ERM-binding phosphoprotein 50 (EBP50) (other, UniProt O14745 2-358, looked up)
chain: SADAAAGAPLPRLCCLEKGPNGYGFHLHGEKGKLGQYIRLVEPGSPAEKAGLLAGDRLVEVNGENVEKETHQQVVSRIRAALNAVRLLVVDPETDEQLQKLGVQVREELLRAQEAPGQAEPPAAAEVQGAGNENEPREADKSHPEQRELRPRLCTMKKGPSGYGFNLHSDKSKPGQFIRSVDPDSPAEASGLRAQDRIVEVNGVCMEGKQHGDVVSAIRAGGDETKLLVVDRETDEFFKKCRVIPSQEHLNGPLPVPFTNGEIQKENSREALAEAALESPRPALVRSASSDTSEELNSQDSPPKQDSTAPSSTSSSDPILDFNISLAMAKERAHQKRSSKRAPQMDWSKKNELFSNL
notes: Endogenous protein detected by Western blot (anti-EBP50, Clone 6/EBP50) in anti-p-ERM IP products
Regarding B1, the binding result is given as “binds”.
